These results are taken from publication PMC314469, “Protein Interaction Networks by Proteome Peptide Scanning” (PLoS Biology, 2004).

The target in assay [1] is endophilin SH3 (SH3G2_HUMAN), Q99962. Briefly: SPOT array.
Assay [2] deals with T1, amphyphisin SH3 (AMPH_HUMAN), P49418.
T1 chain: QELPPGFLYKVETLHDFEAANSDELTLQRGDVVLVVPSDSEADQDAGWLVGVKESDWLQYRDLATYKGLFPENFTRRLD
The experiment in a line: SPOT array.

KEMVPAKPPKGLVG [Q99651 220-234]: the results for the normalised SPOT signal, Boehringer light units (BLU); mean over the file's lines of this peptide in assay [1] and in assay [2] were 276 and 56.3, respectively.

For KLMEPHRPERQDEK [P49593 287-300], the values for the normalised SPOT signal, Boehringer light units (BLU); mean over the file's lines of this peptide in assay [1] and in assay [2] were 146 and 485, respectively.

Consider KKPPLRRPHSVIGG [Q00537 66-79], for which the figures for the normalised SPOT signal, Boehringer light units (BLU); mean over the file's lines of this peptide in assay [1] and in assay [2] were 81 and 15.8, respectively.

Take KGPGPQKPPTEADK [O15021 1933-1947]: the normalised SPOT signal, Boehringer light units (BLU); mean over the file's lines of this peptide came out at 82.6 in assay [1] and 59.9 in assay [2].

Take KKDSFERPRRVGAK [O95391 130-143]: the normalised SPOT signal, Boehringer light units (BLU); mean over the file's lines of this peptide amounted to 106 in assay [1] and 2590 in assay [2].

On to KLDTPLRPARQQPT [Q14775 472-485], for which the normalised SPOT signal, Boehringer light units (BLU); mean over the file's lines of this peptide in assay [1] stood at 1390; in assay [2], 2170.

Turning to KITPPRRPHRSSSG [Q9NWB4 151-164], the normalised SPOT signal, Boehringer light units (BLU); mean over the file's lines of this peptide in assay [1] is 2730; in assay [2], 6680.

Turning to KLGTLRRPEGPAEP [Q14289 12-25], the normalised SPOT signal, Boehringer light units (BLU); mean over the file's lines of this peptide came out at 10.4 in assay [1] and 24.6 in assay [2].

As to KDLALLRPSKRQPP [Q9H6A9 265-278], the values for the normalised SPOT signal, Boehringer light units (BLU); mean over the file's lines of this peptide in assay [1] and in assay [2] were 226 and 66.4, respectively.

Consider KIIPPKKPPTKVVP [Q8WZ42 11374-11388], for which the normalised SPOT signal, Boehringer light units (BLU); mean over the file's lines of this peptide amounted to 132 in assay [1] and 39 in assay [2].

For the molecule KIGFFKRPLKKKME [P56199 1137-1150], the normalised SPOT signal, Boehringer light units (BLU); mean over the file's lines of this peptide in assay [1] was found to be 200; in assay [2] it was 149.

As for KLFRPRRPRSSSDA [O94820 221-234], the normalised SPOT signal, Boehringer light units (BLU); mean over the file's lines of this peptide in assay [1] came to 316; in assay [2] it was 46.6.

Consider KGRVLKRPPNSVVT [Q9HC49 341-354], for which the normalised SPOT signal, Boehringer light units (BLU); mean over the file's lines of this peptide was found to be 25.2 in assay [1] and 33.1 in assay [2].

On to KISWLSRPRRVSLS [Q13577 12-25], for which the normalised SPOT signal, Boehringer light units (BLU); mean over the file's lines of this peptide came to 492 in assay [1] and 1200 in assay [2].

With KGTIPKRPWLSATP [O15043 393-406], the normalised SPOT signal, Boehringer light units (BLU); mean over the file's lines of this peptide in assay [1] was determined as 516; in assay [2], 35.5.

Regarding ANLALRRPQGSTSR [P06681 588-601], the normalised SPOT signal, Boehringer light units (BLU); mean over the file's lines of this peptide in assay [1] was determined as 322; in assay [2] it was 12.6.

Regarding KFWDLRRPYEPINS [Q16632 639-652], the normalised SPOT signal, Boehringer light units (BLU); mean over the file's lines of this peptide was found to be 61.9 in assay [1] and 44.3 in assay [2].

Turning to KEQEPKRPHIKKPL [Q9UJU2 290-303], the values for the normalised SPOT signal, Boehringer light units (BLU); mean over the file's lines of this peptide in assay [1] and in assay [2] were 63.9 and 39, respectively.

In the case of KKPVPARPPPPTNF [AAH28697 228-242], the normalised SPOT signal, Boehringer light units (BLU); mean over the file's lines of this peptide in assay [1] came out at 11900; in assay [2] it was 150.

Regarding KGAPFRRPLYTNVP [Q9NQ11 1067-1080], the normalised SPOT signal, Boehringer light units (BLU); mean over the file's lines of this peptide in assay [1] is 167; in assay [2], 36.3.

Turning to KKYLPKRPAKDDPE [Q15642 51-64], the normalised SPOT signal, Boehringer light units (BLU); mean over the file's lines of this peptide in assay [1] was 195; in assay [2], 11.1.

Regarding KFLDPARPYKSTVS [Q9C0A1 71-84], the normalised SPOT signal, Boehringer light units (BLU); mean over the file's lines of this peptide in assay [1] was 43.5; in assay [2], 20.4.

Turning to KLKSPKRPASPSSP [Q9H8D2 66-79], the normalised SPOT signal, Boehringer light units (BLU); mean over the file's lines of this peptide in assay [1] stood at 803; in assay [2], 32.4.

Turning to KIPKPPKPPKPPRP [Q9Y6N4 503-517], the normalised SPOT signal, Boehringer light units (BLU); mean over the file's lines of this peptide in assay [1] came to 9990; in assay [2] it was 1310.

On to KLMKFSRPKKTRSG [Q9UIG2 1550-1563], for which the normalised SPOT signal, Boehringer light units (BLU); mean over the file's lines of this peptide was 1.7 in assay [1] and 0 in assay [2].

Consider AMLSIPRPSKRFWM [Q92508 1232-1245], for which the figures for the normalised SPOT signal, Boehringer light units (BLU); mean over the file's lines of this peptide in assay [1] and in assay [2] were 20.1 and 258, respectively.

For ANKILNRPKRYNSG [P00740 37-50], the normalised SPOT signal, Boehringer light units (BLU); mean over the file's lines of this peptide worked out at 198 in assay [1] and 476 in assay [2].

As to KDVLFIRPRKYIHS [Q92613 102-115], the normalised SPOT signal, Boehringer light units (BLU); mean over the file's lines of this peptide was determined as 86.6 in assay [1] and 66.7 in assay [2].

On to KDPGPPRPHRPEAT [Q9Y6J0 1992-2005], for which the normalised SPOT signal, Boehringer light units (BLU); mean over the file's lines of this peptide in assay [1] came out at 412; in assay [2], 1150.

Consider KKPDIPRPIKINLL [Q9UHI5 412-425], for which the normalised SPOT signal, Boehringer light units (BLU); mean over the file's lines of this peptide in assay [1] amounted to 307; in assay [2], 159.

In the case of KFLDPSRPYKSTVS [Q15911 1537-1550], the normalised SPOT signal, Boehringer light units (BLU); mean over the file's lines of this peptide in assay [1] came out at 86.2; in assay [2] it was 21.4.

As to KDPGPPRPPAGATQ [Q9H7K4 46-60], the normalised SPOT signal, Boehringer light units (BLU); mean over the file's lines of this peptide was determined as 229 in assay [1] and 43.9 in assay [2].

As for KNLDISRPDKKSKK [P46977 431-444], the normalised SPOT signal, Boehringer light units (BLU); mean over the file's lines of this peptide amounted to 342 in assay [1] and 327 in assay [2].

For the molecule ANIRLKRPLKMEDP [P23378 97-110], the normalised SPOT signal, Boehringer light units (BLU); mean over the file's lines of this peptide in assay [1] was found to be 228; in assay [2], 21.8.

Take KIVDPKRPLMPEES [Q9BXK3 581-594]: the normalised SPOT signal, Boehringer light units (BLU); mean over the file's lines of this peptide in assay [1] was 34; in assay [2] it was 26.8.

Consider KDEKPKRPEDESGR [Q9BZI7 330-343], for which the normalised SPOT signal, Boehringer light units (BLU); mean over the file's lines of this peptide in assay [1] worked out at 314; in assay [2], 30.5.

In the case of KLEDPRRPDTSFLW [O75923 2014-2027], the normalised SPOT signal, Boehringer light units (BLU); mean over the file's lines of this peptide in assay [1] came out at 22.4; in assay [2], 45.6.

Turning to KGSKPVRPPAPGHG [Q9UH43 133-147], the results for the normalised SPOT signal, Boehringer light units (BLU); mean over the file's lines of this peptide in assay [1] and in assay [2] were 21200 and 64.8, respectively.
